Molecular target: the molecule itself
Experiment: crystal structure

B1: soluble C terminus (soluble domain, residues 343 to 882) of Medicago truncatula DMI1 (domain or fragment)
chain: SEVIERNHVLILGWSDKLGSLLKQLAIANKSVGGGVIVVLAEKEKEEMEMDIAKLEFDFMGTSVICRSGSPLILADLKKVSVSKARAIIVLAADENADQSDARALRVVLSLAGVKEGLRGHVVVEMSDLDNEPLVKLVGGELIETVVAHDVIGRLMIQCALQPGLAQIWEDILGFENAEFYIKRWPELDDLLFKDILISFPDAIPCGVKVAADGGKIVINPDDNYVLRDGDEVLVIAEDDDTYAPGPLPEVRKGYFPRIRDPPKYPEKILFCGWRRDIDDMIMVLEAFLAPGSELWMFNEVPEKERERKLAAGELDVFGLENIKLVHREGNAVIRRHLESLPLETFDSILILADESVEDSVAHSDSRSLATLLLIRDIQSRRLPYRDTKSTSLRLSGFSHNSWIREMQQASDKSIIISEILDSRTRNLVSVSRISDYVLSNELVSMALAMVAEDKQINRVLEELFAEEGNEMCIKPAEFYLFDQEELCFYDIMIRGRTRKEIVIGYRLANQERAIINPSEKSVPRKWSLDDVFVVLASGE
  stoichiometry N: 4
